Reference: US6949244

Key:
[1] = target: murine monoclonal anti-HMFG antibody MC-10 (BrE-1); assay: RIA: 125I-11D10 bound to BrE-1 coated plate, no inhibitor
[2] = target: murine monoclonal anti-HMFG antibody MC-10 (BrE-1); assay: competition RIA: 125I-11D10 on BrE-1 coated plate, 0.250 µg unlabeled 11D10
[3] = target: murine monoclonal anti-HMFG antibody MC-10 (BrE-1); assay: RIA: plate coated with 1000 ng 11D10, 125I-BrE-1 bound
BrE-3 [4] = assay: RIA: plate coated with 100 ng 11D10, 125I-BrE-3 bound
BrE-3 [5] = assay: RIA: plate coated with 300 ng 11D10, 125I-BrE-3 bound
[6] = target: murine monoclonal anti-HMFG antibody MC-10 (BrE-1); assay: RIA: plate coated with 300 ng 11D10, 125I-BrE-1 bound
[7] = target: murine monoclonal anti-HMFG antibody MC-10 (BrE-1); assay: RIA: plate coated with 100 ng 11D10, 125I-BrE-1 bound
BrE-3 [8] = assay: RIA: plate coated with 1000 ng 11D10, 125I-BrE-3 bound
[9] = target: murine monoclonal anti-HMFG antibody MC-10 (BrE-1); assay: competition RIA: 250 ng 11D10 mixed with labeled BrE-1, binding to MCF-7 / SKBR3 cell monolayers

cpm Bound [1]: 37100 cpm
% inhibition [2]: 95%
cpm Bound [2]: 1850 cpm
cpm [3]: 44200 cpm
cpm (BrE-3 [4]): 263 cpm
cpm (BrE-3 [5]): 260 cpm
cpm [6]: 16700 cpm
cpm [7]: 6150 cpm
cpm (BrE-3 [8]): 374 cpm
% inhibition [9]: > 90%
Substance: monoclonal anti-idiotype antibody 11D10
